Biological target: the molecule itself
Test: AUC

B1: MxiN (recombinant, from pET15b) (natural protein)
chain: MKVCNMQKGTLPVSRHHAYDGVVIKRIEKELCKTIKDRDTESKKKAICVIKDATKKAESLRIDAVCDGYQIGIQTAFEHIIDYICEWKLKQNENRRNIEDYITSLLSENLHDERIISTLLEQWLSSLRNTVTELKVVLPKCNLALRKKLELDLHKYRSDVKIILKYSEGNNYIFCSGNQVVEFSPQDVISGVKIELAEKLTKNDKKYFKELAHKKLRQIAEDLLKENPVND
stoichiometry N: 2

Source: PMC5910026 (Biochemistry, 2018)
